Our source for the Kd values is publication PMC5730846 (2017).

In general, Kd refers to the equilibrium constant for the complex coming apart.

Assay [1] concerns the target T1, recombinant Hsp90α (human, UniProt P07900 1-732). As to the kind of experiment: FP; AMPPNP.
Assay [2] concerns the target T1, recombinant Hsp90α. As to the kind of experiment: FP; ADP.

B1: Tsc1-D-His6 labeled with Texas Red maleimide (domain or fragment)
chain: DGCSDSMVGHNEEASGHNGETKTPRPSSARGSSGSRGGGGSSSSSSELSTPEKPPHQRAGPFSSRWETTMGEASASIPTTVGSLPSSKSFLGMKARELFRNKSESQCDEDGMTSSLSESLKTELGKDLGVEAKIPLNLDGPHPSPPTPDSVGQLHIMDYNETHHEHS
modifications: Texas Red C2 maleimide label, 0.8 labels/Tsc1-D
For the molecule B1, the Kd with recombinant Hsp90α [1] was 240 nM; with recombinant Hsp90α [2] it was 810 nM.
